Test [1] has as its target T1, phospho-Ser45-β-catenin (pS45-β-catenin) (human, UniProt P35222 1-781, phosphoserine at 45).
T1 sequence: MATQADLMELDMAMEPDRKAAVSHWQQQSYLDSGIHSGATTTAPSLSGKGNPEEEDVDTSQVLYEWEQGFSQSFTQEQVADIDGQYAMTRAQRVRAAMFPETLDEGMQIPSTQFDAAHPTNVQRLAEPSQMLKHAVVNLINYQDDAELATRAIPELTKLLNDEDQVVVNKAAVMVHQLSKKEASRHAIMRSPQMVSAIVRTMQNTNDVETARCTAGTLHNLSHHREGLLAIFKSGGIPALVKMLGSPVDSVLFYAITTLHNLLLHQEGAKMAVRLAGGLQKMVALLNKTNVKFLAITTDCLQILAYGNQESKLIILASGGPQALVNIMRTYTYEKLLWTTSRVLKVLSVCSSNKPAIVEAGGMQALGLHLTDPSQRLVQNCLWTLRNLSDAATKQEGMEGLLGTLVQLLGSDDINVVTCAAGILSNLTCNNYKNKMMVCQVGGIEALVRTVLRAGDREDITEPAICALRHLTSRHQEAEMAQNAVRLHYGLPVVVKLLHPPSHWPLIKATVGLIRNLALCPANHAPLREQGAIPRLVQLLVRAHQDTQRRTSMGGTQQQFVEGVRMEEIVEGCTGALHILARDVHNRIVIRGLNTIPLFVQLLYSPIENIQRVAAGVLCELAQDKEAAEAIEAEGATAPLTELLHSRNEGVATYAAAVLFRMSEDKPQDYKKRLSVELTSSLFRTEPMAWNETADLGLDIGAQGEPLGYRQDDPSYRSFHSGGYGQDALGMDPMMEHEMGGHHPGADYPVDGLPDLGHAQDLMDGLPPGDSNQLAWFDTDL
Nature of the test: BLI. On the technique in general: In BLI a coated tip is dipped into the sample, and binding shifts an interference pattern.

For the next test, the target named is GSK3β (human, UniProt P49841 1-420, phosphorylated on the activation loop Tyr216). Nature of the test: BLI.
Sequence of GSK3β (P49841 whole entry): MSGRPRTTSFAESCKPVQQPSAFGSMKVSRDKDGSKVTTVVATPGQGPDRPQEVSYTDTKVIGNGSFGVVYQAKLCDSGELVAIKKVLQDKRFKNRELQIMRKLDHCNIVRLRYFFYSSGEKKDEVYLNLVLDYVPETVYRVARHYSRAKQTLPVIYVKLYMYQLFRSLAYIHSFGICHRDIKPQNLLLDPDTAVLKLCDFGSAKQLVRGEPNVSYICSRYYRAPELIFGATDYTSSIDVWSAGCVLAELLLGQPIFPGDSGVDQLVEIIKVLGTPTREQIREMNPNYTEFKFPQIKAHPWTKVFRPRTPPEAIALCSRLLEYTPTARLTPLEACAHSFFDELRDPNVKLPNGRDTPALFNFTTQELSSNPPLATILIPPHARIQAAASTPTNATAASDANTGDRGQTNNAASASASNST

B1: Axin_(384-518) (miniAxin) (domain or fragment)
chain: EPQKFAEELIHRLEAVQRTREAEEKLEERLKRVRMEEEGEDGDPSSGPPGPCHKLPPAPAWHHFPPRCVDMGCAGLRDAHEENPESILDEHVQRVLRTPGRQSPGPGHRSPDSGHVAKMPVALGGAASGHGKHVP
In general, Kd refers to the equilibrium constant for the complex coming apart. High values mean weaker binding, low ones tighter binding. Consider B1, for which the figures for the Kd (in test [1]; with GSK3β) were 4000 nM and 16 nM, respectively.

Values taken from publication doi:10.1101/768242 (bioRxiv, 2019).
